Test [1] deals with T1, recombinant human PCSK9 protein, His-tagged (Immunogen A, hPCSK9-His) (human, UniProt Q8NBP7 31-692, limits assumed, biotin-labelled in the ELISA and blocking assays (Biotin labeling kit)).
T1 construct: also called human PCSK9-His; recombinant hPCSK9-His; not shown: His tag
In words: blocking ELISA, biotin-hPCSK9-His on coated LDLR ECD-His; antibody 1.6 nM. In general terms: An ELISA detects its analyte on a solid surface through an enzyme-linked reagent.

Test [2] concerns the target T2, recombinant cyno monkey PCSK9 protein (cyno monkey, UniProt A8T666 31-692 (rhesus entry), limits assumed, biotin-labelled in the ELISA (Biotin labeling kit)).
T2 construct: also called cyno PCSK9; Cyno Monkey PCSK9-His
In words: ELISA, biotin-cyno PCSK9 on streptavidin plate; antibody 6.67 nM.
Description: (§1) The next day, the plates were washed twice with wash buffer [0.01% (v/v) Tween 20], then blocked with blocking buffer [0.01% (v/v) 0.1% BSA (w/w) Tween 20] at room temperature for 2 hours. […] Unbound PCSK9 proteins were removed by washing the plate three times with wash buffer [0.01% (v/v) Tween 20]. […] The plates were washed twice with wash buffer [0.01% (v/v) Tween 20], and 200 uL HRP-conjugated secondary antibody (Sigma) was added to each well and incubated for 2 hours at 37° C. After the plates were washed three times with wash buffer, 100 ul TMB substrate were added to each well and incubated for 30 minutes at room temperature. 100 ul stop solution (0.1N HCl) were added to each well to stop the reaction.

Test [3] addresses T2, recombinant cyno monkey PCSK9 protein. The experiment in a line: ELISA, biotin-cyno PCSK9 on streptavidin plate; antibody 0.0067 nM.
Description: as §1
Test [4] has the same target. The experiment in a line: ELISA, biotin-cyno PCSK9 on streptavidin plate; antibody 0.067 nM.
Description: as §1
Test [5] has the same target. In words: ELISA, biotin-cyno PCSK9 on streptavidin plate; antibody 0.67 nM.
Description: as §1
Test [6] deals with T1, recombinant human PCSK9 protein, …. In words: blocking ELISA, biotin-hPCSK9-His on coated LDLR ECD-His; antibody 40 nM.
Description: (§2) Purified LDLR^ECD-His was diluted with PBS to a final concentration of 1.0 ug/ml, and 100 uL of diluted LDLR^ECD-His were added to each well of 96-well plate that was then sealed with plastic film and incubated at 4° C. overnight. The plate was washed twice with wash buffer [PBS+0.01% (v/v) Tween 20] and incubated with blocking buffer [PBS+0.01% (v/v) BSA+1% Tween20 (w/w)] at room temperature for 2 hours. […] The plate was washed three times with wash buffer [0.01% (v/v) Tween 20]. 100 uL HRP-conjugated streptavidin (Sigma) were then added to each well and incubated at 37° C. for 1 hour. The plate was then washed three times with wash buffer, and 100 uL TMB substrate were added to each well. After 15 minutes of incubation at room temperature, the reaction was stopped by adding 50 uL stop solution (0.1N HCl).
Test [7] concerns the target T2, recombinant cyno monkey PCSK9 protein. In words: ELISA, biotin-cyno PCSK9 on streptavidin plate; antibody 0.000067 nM.
Description: as §1
Test [8] has the same target. The experiment in a line: ELISA, biotin-cyno PCSK9 on streptavidin plate; antibody 0 nM (blank).
Description: as §1
The target in test [9] is T1, recombinant human PCSK9 protein, …. In words: blocking ELISA, biotin-hPCSK9-His on coated LDLR ECD-His; antibody 0.06 nM.
Description: as §2
For test [10] the target is unchanged. The experiment in a line: ELISA, biotin-hPCSK9-His on streptavidin plate; antibody 0.067 nM.
Description: as §1
Test [11] shares this target. In words: ELISA, biotin-hPCSK9-His on streptavidin plate; antibody 66.67 nM.
Description: as §1
For test [12] the target is unchanged. The experiment in a line: ELISA, biotin-hPCSK9-His on streptavidin plate; antibody 6.67 nM.
Description: as §1
Test [13] shares this target. In words: blocking ELISA, biotin-hPCSK9-His on coated LDLR ECD-His; antibody 0.01 nM.
Description: as §2
Test [14] shares this target. In words: ELISA, biotin-hPCSK9-His on streptavidin plate; antibody 0.00067 nM.
Description: as §1
For test [15] the target is unchanged. The experiment in a line: ELISA, biotin-hPCSK9-His on streptavidin plate; antibody 0.0067 nM.
Description: as §1
The target is the same in test [16]. In words: blocking ELISA, biotin-hPCSK9-His on coated LDLR ECD-His; antibody 0.32 nM.
Description: as §2
For test [17], the target named is T2, recombinant cyno monkey PCSK9 protein. The experiment in a line: ELISA, biotin-cyno PCSK9 on streptavidin plate; antibody 0.00067 nM.
Description: as §1
Test [18] has as its target T1, recombinant human PCSK9 protein, …. The experiment in a line: ELISA, biotin-hPCSK9-His on streptavidin plate; antibody 0 nM (blank).
Description: as §1
Test [19] has the same target. The experiment in a line: ELISA, biotin-hPCSK9-His on streptavidin plate; antibody 0.67 nM.
Description: as §1
For test [20] the target is unchanged. The experiment in a line: blocking ELISA, biotin-hPCSK9-His on coated LDLR ECD-His; antibody 8 nM.
Description: as §2
For test [21] the target is unchanged. In words: ELISA, biotin-hPCSK9-His on streptavidin plate; antibody 0.000067 nM.
Description: as §1
The target is the same in test [22]. The experiment in a line: blocking ELISA, biotin-hPCSK9-His on coated LDLR ECD-His; antibody 200 nM.
Description: as §2
Test [23] deals with T2, recombinant cyno monkey PCSK9 protein. In words: ELISA, biotin-cyno PCSK9 on streptavidin plate; antibody 66.67 nM.
Description: as §1

T2 sequence (A8T666 31-692 limits assumed): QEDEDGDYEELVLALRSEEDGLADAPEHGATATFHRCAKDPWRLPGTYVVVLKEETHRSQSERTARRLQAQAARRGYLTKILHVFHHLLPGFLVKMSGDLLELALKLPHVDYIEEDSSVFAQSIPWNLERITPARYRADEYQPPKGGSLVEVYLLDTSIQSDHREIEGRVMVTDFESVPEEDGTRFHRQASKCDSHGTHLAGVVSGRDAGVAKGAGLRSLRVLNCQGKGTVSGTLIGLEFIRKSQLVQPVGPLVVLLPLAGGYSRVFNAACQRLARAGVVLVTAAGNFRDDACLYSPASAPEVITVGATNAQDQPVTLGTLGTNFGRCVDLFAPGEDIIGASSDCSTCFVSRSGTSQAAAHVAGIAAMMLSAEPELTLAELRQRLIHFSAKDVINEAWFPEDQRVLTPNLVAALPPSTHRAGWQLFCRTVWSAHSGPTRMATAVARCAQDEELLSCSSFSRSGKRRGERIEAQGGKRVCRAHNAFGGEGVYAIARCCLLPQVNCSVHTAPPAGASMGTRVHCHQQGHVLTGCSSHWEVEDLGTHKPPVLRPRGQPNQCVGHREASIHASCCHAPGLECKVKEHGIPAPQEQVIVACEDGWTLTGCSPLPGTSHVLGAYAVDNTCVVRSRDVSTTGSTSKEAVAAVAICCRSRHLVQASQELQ

B1: 152G2F7, chimeric anti-PCSK9 mAb purified from hybridoma (antibody, V domains shown)
VH: EVQLVESGGGLVQPGGSLRLSCAASEFTFGGYWMTWVRQAPGKGLEWVANIKQDGSEKYYVDSVKGRFTISRDNAKNSLYLHMNSLRAEDTAVYYCARDRTTMIRGVSLYYYYYGMDVWGQGTAVTVSS
VL: EIVLTQSPATLSLSPGERATLSCRASQSVSSYLAWYQQKPGQAPRLLIYDASNRATGIPARFSGSGSGTDFTLTISSLEPEDFAVYYCQQRSNWPLTFGGGTKVEIK
notes: From Harbour H2L2 mice: human variable regions, rat constant regions
As for B1, the “OD450 nm (PCSK9 bound to LDLR)” value in [1] stood at 1.2 OD450 nm; in test [6], 0.74 OD450 nm; in test [9] it was 1.2 OD450 nm; in [13], 1.26 OD450 nm; in test [16], 1.17 OD450 nm; in test [20], 0.94 OD450 nm. Further, the “OD450 nm (PCSK9 bound to LDLR)” value in test [22] was found to be 0.7 OD450 nm. Moreover, the OD450 nm turned out to be 2.67 OD450 nm in test [2]; 0.2 OD450 nm in test [3]; 0.35 OD450 nm in [4]; 1.25 OD450 nm in [5]; 0.27 OD450 nm in test [7]; 0.33 OD450 nm in [8]. Besides, the OD450 nm in test [10] was determined as 0.6 OD450 nm; in test [11], 2.91 OD450 nm; in [12], 2.91 OD450 nm; in test [14], 0.21 OD450 nm; in test [15] it was 0.25 OD450 nm; in test [17] it was 0.21 OD450 nm. The OD450 nm is 0.17 OD450 nm in test [18], 2.42 OD450 nm in test [19], 0.18 OD450 nm in [21] and 2.93 OD450 nm in test [23].
